The text below walks through data of patent publication US20240101668A1 (WUGEN, published 2024).

The target in assay [1] is T1, huCD33-G69-Fc recombinant protein (human, UniProt P20138 18-259).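 Note: biolayer interferometry: scFvs captured from periplasmic extracts on anti-V5-loaded streptavidin biosensors, antigen association for 2 min, buffer dissociation for 5 min, 1:1 Langmuir fit giving off-rate.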
T1 construct: extracellular domain; also called CD33 R69G
In words: BLI.
Experimental: Discovered scFvs were analyzed for binding to huCD33-R69-His or huCD33-G69-Fc recombinant proteins (for anti-CD33 scFvs; for CLL-1 scFvs, huCLL1-K244-Avi-Tev-His or huCLL1-Q244-Avi-Tev-His were used; for FLT3, huFLT3-T227-His or huFLT3-M227-Fc were used) using BLI on a ForteBio Octet HTX instrument. Streptavidin-coated biosensors were loaded with biotinylated anti-V5 tag monoclonal antibody for 5 min and were then quenched and blocked with 20 μM amine-PEG2-Biotin for 5 min. scFvs were captured on biosensors from scFv clone periplasmic extracts. huCD33 (or huCLL-1, or huFLT3) proteins were then associated with the captured scFvs for 2 minutes, followed by dissociation with buffer (1×HBST [10 mM HEPES pH 7.4, 150 mM NaCl, 0.05% Tween-20], 1 g/L BSA) for 5 minutes. […] Data was fitted with 1:1 Langmuir equation and off-rate values were reported.

In assay [2] the target is T2, huCD33-G69 stably expressed on Jurkat cells (human, UniProt P20138 18-364).
T2 construct: whole, on cells; >200,000 receptors per cell; also called CD33 Mutant; CD33 R69G
In words: FACS on cells.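 Note: fixed Jurkat lines probed with myc-tagged scFv periplasmic extracts, anti-myc PE flow cytometry, PE MFI fold binned − <2, + 2–10, ++ 10–30, +++ >30.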
Experimental: (§1) Jurkat cells were engineered to stably express either the huCD33-R69 or huCD33-G69 variant at >200,000 receptors per cell. Parental, huCD33-R69, and huCD33-G69 Jurkat cell lines were stained with differing levels of CellTrace Violet Cell Proliferation Kit (ThermoFisher, cat. #C34557) to barcode each cell line. Barcoded Jurkat cell lines were fixed with paraformaldehyde and incubated with myc-labeled scFv periplasmic extracts and a secondary anti-myc PE-conjugated monoclonal antibody. Appropriate positive and negative controls were used. Stained cells were analyzed by flow cytometry (CytoFLEX, Beckman Coulter, Inc.) and binding was assessed by change in PE mean fluorescence intensity (MFI) of the barcoded cell populations.
(§2) Data is disclosed below in Table 16c, reporting FACS fold change over parental as (−), indicating <2 fold; (+), indicating 2-10 fold; (++), indicating 10-30 fold; and (+++), indicating >30 fold.

The target in assay [3] is T3, huCD33-R69 stably expressed on Jurkat cells (human, UniProt P20138 18-364).
T3 construct: whole, on cells; >200,000 receptors per cell; also called CD33 WT; CD33^ARG69
Nature of the assay: FACS on cells.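 Note: fixed Jurkat lines probed with myc-tagged scFv periplasmic extracts, anti-myc PE flow cytometry, PE MFI fold binned − <2, + 2–10, ++ 10–30, +++ >30.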
Experimental: as §1, §2

T3 sequence (P20138 18-364): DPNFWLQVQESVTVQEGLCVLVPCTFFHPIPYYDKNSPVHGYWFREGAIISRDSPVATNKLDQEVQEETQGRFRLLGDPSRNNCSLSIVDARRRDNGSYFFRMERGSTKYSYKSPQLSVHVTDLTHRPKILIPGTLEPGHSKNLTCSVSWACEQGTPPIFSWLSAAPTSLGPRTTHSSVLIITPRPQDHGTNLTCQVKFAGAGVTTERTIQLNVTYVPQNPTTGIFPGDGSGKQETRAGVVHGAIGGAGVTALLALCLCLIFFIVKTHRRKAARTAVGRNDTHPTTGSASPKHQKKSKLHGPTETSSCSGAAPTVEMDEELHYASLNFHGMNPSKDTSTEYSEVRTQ
T1 sequence (P20138 18-259 R69G): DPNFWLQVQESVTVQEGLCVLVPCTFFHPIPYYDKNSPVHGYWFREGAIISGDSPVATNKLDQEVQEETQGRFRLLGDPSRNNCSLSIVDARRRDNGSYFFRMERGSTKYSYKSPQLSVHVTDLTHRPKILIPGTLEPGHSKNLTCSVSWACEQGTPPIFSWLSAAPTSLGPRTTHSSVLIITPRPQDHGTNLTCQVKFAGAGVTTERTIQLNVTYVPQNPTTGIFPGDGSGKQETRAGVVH
T2 sequence (P20138 18-364 R69G): as the sequence (P20138 18-364) above, with R52G counted along it

B1: Polypeptide No. 129 (scFv, V domains shown)
VH: EVQLVESGGGLVKPGGSLRLSCAASGFSLRNYWMHWVRQAPGKGLEWVSGISGSGGSTYYADSVKGRFTISRDDSKNTLYLQMNSLKTEDTAVYYCARDYTGVVDYWGQGTLVTVSS
VL: not shown
notes: scFv
Consider B1, for which the binding result in assay [1] is recorded as “binds”. For the same molecule, the “FACS geometric mean fold change over Jurkat parental” value (from here on “FACS geometric mean fold change”) in assay [2] and in assay [3] was 10 to 30 fold each time.

B2: Polypeptide No. 132 (scFv, V domains shown)
VH: EVQLLESGGGLVQPGGSLRLSCAASGFTFNNYGMHWVRQAPGKGLEWVSAISGSGGSTYYADSVKGRFTISRDNSKNTLYLQMNSLRAEDTAVYYCAREYMQQPHGGMDVWGQGTTVTVSS
VL: EIVMTQSPATLSVSPGERATLSCRASQSVNSYLAWYQQKPGQAPRLLIYGASTRATGIPARFSGSGSGTEFTLTISSLQSEDFAVYYCQQYGSSPLSFGGGTKVEIKR
notes: scFv
Take B2: in assay [1], the binding result is given as “binds”. In addition, the “FACS geometric mean fold change” value was 10 to 30 fold in assay [2] and 2 to 10 fold in assay [3].

B3: Polypeptide No. 130 (scFv, V domains shown)
VH: QVQLVQSGAEVKKPGASVKVSCKASGGTFSNYAISWVRQAPGQGLEWMAWMNPNSGNTGYAQKFQGRVTMTRDTSTSTVYMELSSLRSEDTAVYYCARDGFIGFGELFSAFDIWGQGTMVTVSS
VL: DIQMTQSPSSLSASVGDRVTITCRASQSIGTWLAWYQQKPGKAPKLLIYGATRLLSGVPSRFSGSGSGTDFTLTISSLQPEDFATYYCQQSYSTPPTFGQGTKLEIKR
notes: scFv
Turning to B3, in assay [1], the binding result is “binds”. Besides, the “FACS geometric mean fold change” value in assay [2] and in assay [3] was 10 to 30 fold throughout.

B4: Polypeptide No. 131 (scFv, V domains shown)
VH: QVQLVQSGAEVKKPGASVKVSCKASGGTFSNYAINWVRQAPGQGLEWMGWINPNSGGTDSAQKFQGRVTMTRDTSTSTVYMELSSLRSEDTAVYYCARDSSLALSYGGNSEYYYGMDVWGQGTTVTVSS
VL: DIQMTQSPSSLSASVGDRVTITCQASQDISDHLNWYQQKPGKAPKLLIYGASTLQSGVPSRFSGSGSGTDFTLTISSLQPEDFATYYCQQAYSFPWTFGQGTKLEIKR
notes: scFv
Take B4: the binding result in assay [1] is “binds”. The “FACS geometric mean fold change” value in assay [2] was 10 to 30 fold; in assay [3] it was more than 30 fold.

B5: Polypeptide No. 128 (scFv, V domains shown)
VH: QVQLVQSGAEVKKPGASVKVSCKASGYTFTNYYIHWVRQAPGQGLEWLGWTNPINGDTGSAQKFQGRVTMTRDTSTSTVYMELSSLRSEDTAVYYCAKEGQLAWADYYYYMDVWGKGTTVTVSS
VL: DIQMTQSPSSLSASVGDRVTITCRASQGISSALAWYQQKPGKAPKLLIYAASSLQSGVPSRFSGSGSGTDFTLTISSLQPEDFATYYCQQSYSTPLTFGGGTKVEIKR
notes: scFv
B5: in assay [1], the binding result is “binds”. Besides, the “FACS geometric mean fold change” value in assay [2] and in assay [3] was 10 to 30 fold in each case.

B6: Polypeptide No. 134 (scFv, V domains shown)
VH: QVQLVQSGAEVKKPGASVKVSCKASGYTFDSYLLHWVRQAPGQGLEWMGMINPSGAGTTYAQKFQGRVTMTRDTSTSTVYMELSSLRSEDTAVYYCAKEGSIAAGYYFDSWGQGTLVTVSS
VL: DIQMTQSPSSLSASVGDRVTITCRASQSIDSWLAWYQQKPGKAPKLLIYAASSLQSGVPSRFSGSGSGTDFTLTISSLQPEDFATYYCQQSYTTPITFGGGTKVEIKR
notes: scFv
For the molecule B6, in assay [1], the binding result is on record as “binds”. In addition, the “FACS geometric mean fold change” value in assay [2] and in assay [3] was more than 30 fold throughout.

B7: Polypeptide No. 133 (scFv, V domains shown)
VH: EVQLLESGGGLVQPGGSLRLSCAASGFTFSSSWMHWVRQAPGKGLEWVSAISSSGDATYYADSVKGRFTISRDNSKNTLYLQMNSLRAEDTAVYYCAKFSDGGAGDSDYWGQGTLVTVSS
VL: DIQMTQSPSSLSASVGDRVTITCRASQGISSYLAWYQQKPGKAPKLLIYTASSLQSGVPSRFSGSGSGTDFTLTISSLQPEDFATYYCQQYDNLPITFGQGTRLEIKR
notes: scFv
Take B7: the binding result in assay [1] is “binds”. The “FACS geometric mean fold change” value in assay [2] and in assay [3] was 2 to 10 fold throughout.
